From publication PMC6742228

Molecular target: A/Puerto Rico/8/1934 (H1) HA (influenza A virus A/Puerto Rico/8/1934 (H1N1)) (UniProt P03452)

Substance: MAb C179 (antibody)
- HA-pseudovirus neutralization titer (IC95), 293T cells: 0.31 µg/mL
- Plaque reduction titer (IC50), replicating virus on MDCK cells: 27.7 µg/mL

Substance: MAb CR6261 (antibody)
- HA-pseudovirus neutralization titer (IC95), 293T cells: 0.09 µg/mL

Substance: MAb FI6 (antibody)
- HA-pseudovirus neutralization titer (IC95), 293T cells: 0.11 µg/mL
- Plaque reduction titer (IC50), replicating virus on MDCK cells: 3.7 µg/mL
